# PMC6007033
# What was measured:
# [1] = target: BG505.T332N.SOSIP.664.113C.429GCG gp140 trimer (HIV-1 BG505); test: SPR
# [2] = target: BG505.T332N.SOSIP.664.113C.431GCG gp140 trimer (HIV-1 BG505); test: SPR
substance,measurement,setting,value
two-domain soluble CD4 (receptor),reduction in binding affinity against the unmutated trimer,[1],3 log
same,reduction in binding affinity against the unmutated trimer,[2],3 log
